# From publication PMC10567711, “Structure-guided inhibition of the cancer DNA-mutating enzyme APOBEC3A”
# What was measured:
# A3A-E72A [1] = target: T1, A3A-E72A (human, UniProt P31941 1-199, E72A); experiment: X-ray crystallography; 1.91 A; Cl-; ITC: 50 mM Na+/K+ phosphate pH 6.0, 50 mM NaCl, 50 mM choline acetate, 2.5 mM TCEP, 200 uM EDTA, 30 mg/mL BSA, 25 C; NMR inhibition: 50 mM Na+/K+ phosphate pH 7.4, 100 mM NaCl, 1 mM TCEP, 100 uM DSS, 10% D2O, 20 C, 140 nM A3A; settings: protein: recombinant; hairpin, potential 6 bp stem, 4-nt loop ATTC
# A3A-E72A [2] = target: T1, A3A-E72A; experiment: X-ray crystallography; Zn2+; 3.15 A; one copy threaded with GACC loop; ITC: 50 mM Na+/K+ phosphate pH 6.0, 50 mM NaCl, 50 mM choline acetate, 2.5 mM TCEP, 200 uM EDTA, 30 mg/mL BSA, 25 C; NMR inhibition: 50 mM Na+/K+ phosphate pH 7.4, 100 mM NaCl, 1 mM TCEP, 100 uM DSS, 10% D2O, 20 C, 140 nM A3A; settings: protein: recombinant; hairpin, 4 bp stem incl. one AT pair, 4-nt loop CTTC
# T1 sequence (P31941 whole entry E72A): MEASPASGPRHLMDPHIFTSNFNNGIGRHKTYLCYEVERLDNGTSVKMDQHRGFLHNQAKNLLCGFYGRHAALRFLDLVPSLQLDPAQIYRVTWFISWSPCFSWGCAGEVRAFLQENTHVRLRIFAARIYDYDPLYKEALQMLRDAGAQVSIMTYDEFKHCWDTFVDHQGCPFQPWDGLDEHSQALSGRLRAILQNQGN
Binder,binding result (A3A-E72A [1]),binding result (A3A-E72A [2])
CCCATCATTCGATGGG (structured_DNA) [ATTC-hairpin],binds,–
GCCACCTTCGTGGG (structured_DNA) [CTTC-hairpin],–,binds
